# In publication PMC4168798:
# Legend:
# Assay in all cases: fluorescence polarisation
# [1] = biological target: Bcl-xL (c-myc-tagged, without the C-terminal trans-membrane region) (human)
# [2] = biological target: Mcl-1 (c-myc-tagged, without the N-terminal domain and the C-terminal trans-membrane region) (human)
# [3] = biological target: Bfl-1 (c-myc-tagged, without the C-terminal trans-membrane region) (human)
# [4] = biological target: Bcl-2 (c-myc-tagged, without the C-terminal trans-membrane region) (human)
# [5] = biological target: Bcl-w (c-myc-tagged, without the C-terminal trans-membrane region) (human)
# Bcl-w (c-myc-tagged, without the C-terminal trans-membrane region) (human), sequence (Q92843 1-164): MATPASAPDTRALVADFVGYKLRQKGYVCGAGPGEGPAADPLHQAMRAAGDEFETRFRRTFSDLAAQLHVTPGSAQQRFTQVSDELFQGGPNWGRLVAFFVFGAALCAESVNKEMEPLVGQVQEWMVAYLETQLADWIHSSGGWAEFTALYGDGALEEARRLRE
Substance,Kd [1] [nM],Kd [2] [nM],Kd [3] [nM],Kd [4] [nM],Kd [5] [nM]
"Bim_A2eT, N-terminal fluorescein (peptide; other documents disagree on this pair)",–,–,–,–,39
"Bim_A2eT_E2gG, N-terminal fluorescein (peptide)",37,1.6,–,150,–
"Bim_A2eT_I2dM, N-terminal fluorescein (peptide)",83,< 1,150,210,–
"Bim_A2eT_I3dL, N-terminal fluorescein (peptide)",7.6,< 1,120,37,–
"Bim_A2eT_I3dL, N-terminal fluorescein (peptide; other documents disagree on this pair)",–,–,–,–,12

# Further lines, results first:
Kd [1] [nM],Kd [2] [nM],Kd [3] [nM],Kd [4] [nM],Kd [5] [nM],Substance
2.6,< 1,< 1,–,–,"Bim 23-mer, N-terminal fluorescein (peptide)"
17,< 1,31,43,–,"Bim_A2eT, N-terminal fluorescein (peptide)"
–,–,–,–,94,"Bim_A2eT_E2gG, N-terminal fluorescein (peptide; other documents disagree on this pair)"
110,< 1,7.9,150,–,"Bim_A2eT_F4aI, N-terminal fluorescein (peptide)"
–,–,–,–,16,"Bim_A2eT_F4aI, N-terminal fluorescein (peptide; other documents disagree on this pair)"
–,–,–,–,260,"Bim_A2eT_I2dM, N-terminal fluorescein (peptide; other documents disagree on this pair)"
